In PMC10866546, “Pseudomonas effector AvrB is a glycosyltransferase that rhamnosylates plant guardee protein RIN4” (Science Advances, 2024):
Numbering of substitutions follows the chain as printed.

B1: GST-RIN4 T166A (natural protein)
chain: MARSNVPKFGNWEAEENVPYTAYFDKARKTRAPGSKIMNPNDPEYNSDSQSQAPPHPPSSRTKPEQVDTVRRSREHMRSREESELKQFGDAGGSSNEAANKRQGRASQNNSYDNKSPLHKNSYDGTGKSRPKPTNLRADESPEKVTVVPKFGDWDENNPSSADGYAHIFNKVREERSSGANVSGSSRTPTHQSSRNPNNTSSCCCFGFGGK
notes: source: E. coli BL21 (DE3), purified (Ni2+-NTA)
B2: GST-RIN4 T166E (natural protein)
chain: B1 chain with A166E
notes: as for B1

Target: T1, AvrB (WT), C-terminal 6xHis tag (P. syringae, UniProt P13835 1-321)
T1 construct: AvrB, type III secretion system effector of Pseudomonas syringae; cDNA in pET-29b; source: E. coli BL21 (DE3), purified (Ni2+-NTA)
Experiment: pull-down; GST-tagged bait (10 μg) and prey (10 μg) with 10 μl glutathione agarose resin in 500 μl of 25 mM Hepes pH 7.4, 150 mM NaCl, 1 mM DTT, 0.1% Triton X-100, 5 mg BSA for blocking; 4°C, 30 min; three washes; SDS-PAGE, Coomassie staining
Conditions: both partners purified

| Binder | binding result |
| --- | --- |
| B1 | binds |
| B2 | binds |
